Earlier results as cited in patent US8021659B2, “Coenzyme Q10, lactoferrin and angiogenin compositions and uses thereof” (Naidu LP, priority 2006, dated 2011).

Columns and labels:
[1] = tested on: osteoblasts; settings: up to

B1: LF: 79-kDa glycoprotein present in every mucosal secretion of the human body; metal-transport protein (protein, UniProt P02788 20-710, looked up)
Lactotransferrin: GRRRSVQWCAVSQPEATKCFQWQRNMRKVRGPPVSCIKRDSPIQCIQAIAENRADAVTLDGGFIYEAGLAPYKLRPVAAEVYGTERQPRTHYYAVAVVKKGGSFQLNELQGLKSCHTGLRRTAGWNVPIGTLRPFLNWTGPPEPIEAAVARFFSASCVPGADKGQFPNLCRLCAGTGENKCAFSSQEPYFSYSGAFKCLRDGAGDVAFIRESTVFEDLSDEAERDEYELLCPDNTRKPVDKFKDCHLARVPSHAVVARSVNGKEDAIWNLLRQAQEKFGKDKSPKFQLFGSPSGQKDLLFKDSAIGFSRVPPRIDSGLYLGSGYFTAIQNLRKSEEEVAARRARVVWCAVGEQELRKCNQWSGLSEGSVTCSSASTTEDCIALVLKGEADAMSLDGGYVYTAGKCGLVPVLAENYKSQQSSDPDPNCVDRPVEGYLAVAVVRRSDTSLTWNSVKGKKSCHTAVDRTAGWNIPMGLLFNQTGSCKFDEYFSQSCAPGSDPRSNLCALCIGDEQGENKCVPNSNERYYGYTGAFRCLAENAGDVAFVKDVTVLQNTDGNNNEAWAKDLKLADFALLCLDGKRKPVTEARSCHLAMAPNHAVVSRMDKVERLKQVLLHQQAKFGRNGSDCPDKFCLFQSETKNLLFNDNTECLARLHGKTTYEKYLGPQYVAGITNLKKCSTSPLLEACEFLRK
- time to peak level in plasma (absorption in the intestinal tract): ≤ 2 h
- mean fractional catabolic rate (elimination from the plasma by liver and spleen): 5.7 day⁻¹
- reduction of the rate at which osteoblasts die [1]: 50-70%
